Source: paper PMC2606091 (Cell, 2008)

B1: Hsp33 oxidised and activated with a 10-fold molar excess of HOCl (Hsp33_(HOCl)) (natural protein)
chain: MPQHDQLHRYLFENFAVRGELVTVSETLQQILENHDYPQPVKNVLAELLVATSLLTATLKFDGDITVQLQGDGPMNLAVINGNNNQQMRGVARVQGEIPENADLKTLVGNGYVVITITPSEGERYQGVVGLEGDTLAACLEDYFMRSEQLPTRLFIRTGDVDGKPAAGGMLLQVMPAQNAQQDDFDHLATLTETIKTEELLTLPANEVLWRLYHEEEVTVYDPQDVEFKCTCSRERCADALKTLPDEEVDSILAEDGEIDMHCDYCGNHYLFNAMDIAEIRNNASPADPQVH
modifications: two intramolecular disulfide bonds (Cys232-Cys234; Cys265/Cys268 fully oxidised) after HOCl treatment

What was measured:
Hsp33 (Escherichia coli) = Hsp33 (Escherichia coli) (UniProt P0A6Y5); details: cited from earlier work
AUC = molecular target: the molecule itself; assay: AUC

| Molecule | Kd (Hsp33 (Escherichia coli)) | Kd (AUC) | stoichiometry N (AUC) |
| --- | --- | --- | --- |
| Hsp33 (from UniProt P0A6Y5) | 590 nM | – | – |
| B1 | – | 570 nM | 2 |
